{
  "source": "patent US20090041777A1",
  "about": "(UNIVERSITY OF MASSACHUSETTS, published 2009)",
  "key": {"[1]": {"biological_target": "T1, ERA-CO glycoprotein (codon-optimized full-length rabies G glycoprotein, ERA strain, amino acids 1-524, … (rabies virus, ERA strain, UniProt P03524 20-524))", "T1 sequence": "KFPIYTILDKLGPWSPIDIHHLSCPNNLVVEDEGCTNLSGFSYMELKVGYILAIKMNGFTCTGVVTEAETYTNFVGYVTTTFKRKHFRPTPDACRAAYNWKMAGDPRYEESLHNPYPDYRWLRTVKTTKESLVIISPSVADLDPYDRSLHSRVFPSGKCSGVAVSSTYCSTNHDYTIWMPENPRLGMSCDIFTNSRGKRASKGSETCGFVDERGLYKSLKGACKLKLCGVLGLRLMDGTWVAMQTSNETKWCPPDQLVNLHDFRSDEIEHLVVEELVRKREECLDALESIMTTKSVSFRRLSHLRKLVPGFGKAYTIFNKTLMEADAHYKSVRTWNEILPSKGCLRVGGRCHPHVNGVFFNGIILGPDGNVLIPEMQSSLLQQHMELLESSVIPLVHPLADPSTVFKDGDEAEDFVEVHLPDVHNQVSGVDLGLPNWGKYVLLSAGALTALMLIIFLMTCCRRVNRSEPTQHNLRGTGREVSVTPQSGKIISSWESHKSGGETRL", "experiment": "flow cytometry on transfected 293T cells, PE anti-human IgG"}, "[2]": {"biological_target": "T2, ERA-CO20-439 (secreted soluble ectodomain of codon-optimized ERA rabies G glycoprotein, Myc/His tagged) (rabies virus, ERA strain, UniProt P03524 20-439)", "T2 sequence": "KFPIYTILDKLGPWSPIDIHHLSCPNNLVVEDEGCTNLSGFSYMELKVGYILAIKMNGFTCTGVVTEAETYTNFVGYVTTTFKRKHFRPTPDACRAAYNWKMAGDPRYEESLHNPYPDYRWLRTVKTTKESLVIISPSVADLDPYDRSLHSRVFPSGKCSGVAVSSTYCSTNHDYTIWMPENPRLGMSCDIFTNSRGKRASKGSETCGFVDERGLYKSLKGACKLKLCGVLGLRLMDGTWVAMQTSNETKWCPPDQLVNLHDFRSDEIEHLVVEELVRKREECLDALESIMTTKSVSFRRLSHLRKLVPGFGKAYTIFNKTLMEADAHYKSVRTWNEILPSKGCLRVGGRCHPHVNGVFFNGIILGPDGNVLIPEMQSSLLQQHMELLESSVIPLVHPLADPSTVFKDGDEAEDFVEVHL", "experiment": "Biacore (SPR) on the ectodomain region of codon-optimized rabies G glycoprotein"}},
  "data": [
    {"binder": "HuMab 17C7 (antibody, V domains shown) VH: QVQLVESGGGVVQPGRSLRLSCAASGFTFSTYAMHWVRQAPGKGLEWVAVVSYDGRTKDYADSVKGRFTISRDNSKNTLYLQMNSLRTEDTAVYFCARERFSGAYFDYWGQGTLVTVSS VL: EIVLTQSPATLSLSPGERATLSCRASQSVSSYLAWYQQKPGQAPRLLIYDASNRATGIPARFSGSGSGTDFTLTISSLEPEDFAVYSCQQRNNWPPTFGGGTKVEIK", "values": [
      {"measurement": "EC50 (read off the curve)", "setting": "[1]", "result": "~30", "unit": "nM"},
      {"measurement": "Kd", "setting": "[2]", "result": "≤ 13.6", "unit": "nM"}
    ]}
  ]
}
